Biological target: human PTH-2 receptor (human, UniProt P49190 25-550)
Assay: competition binding vs 125I-rPTH(1-34), COS-7 cells

human PTH-2 receptor, sequence (P49190 25-550): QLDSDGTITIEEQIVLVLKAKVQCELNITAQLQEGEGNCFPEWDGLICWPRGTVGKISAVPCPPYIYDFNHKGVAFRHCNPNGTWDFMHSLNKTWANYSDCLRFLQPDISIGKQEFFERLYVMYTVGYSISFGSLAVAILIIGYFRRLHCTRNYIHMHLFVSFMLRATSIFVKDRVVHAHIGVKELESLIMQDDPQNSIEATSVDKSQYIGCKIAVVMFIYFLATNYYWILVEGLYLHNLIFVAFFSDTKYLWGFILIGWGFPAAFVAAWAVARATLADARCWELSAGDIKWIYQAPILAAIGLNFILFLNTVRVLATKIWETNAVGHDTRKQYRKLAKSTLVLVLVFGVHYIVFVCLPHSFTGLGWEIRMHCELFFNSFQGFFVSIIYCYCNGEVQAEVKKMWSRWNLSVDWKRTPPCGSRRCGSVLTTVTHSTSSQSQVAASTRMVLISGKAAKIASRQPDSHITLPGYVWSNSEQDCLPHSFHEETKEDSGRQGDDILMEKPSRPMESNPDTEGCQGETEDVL

| Binder | IC50 |
| --- | --- |
| SMERVEWLRKKLQDV [PTH(17-31)] | 1000 nM |
| SMERVEWLRKKLQDA [PTH(17-31) 31 Val→Ala] | 3800 nM |
| SAERVEWLRKKLQDV [PTH(17-31) 18 Met→Ala] | 1500 nM |
| SMERVAWLRKKLQDV [PTH(17-31) 22 Glu→Ala] | 600 nM |
| SMERVEALRKKLQDV [PTH(17-31) 23 Trp→Ala] | > 100000 nM |
| SMERVEWLRKALQDV [PTH(17-31) 27 Lys→Ala] | 1100 nM |
| SMEAVEWLRKKLQDV [PTH(17-31) 20 Arg→Ala] | 90500 nM |
| SMERVEWLRKKLADV [PTH(17-31) 29 Gln→Ala] | 900 nM |
| AMERVEWLRKKLQDV [PTH(17-31) 17 Ser→Ala] | 1500 nM |
| SMERVEWLRKKAQDV [PTH(17-31) 28 Leu→Ala] | 9900 nM |
| SMERVEWLAKKLQDV [PTH(17-31) 25 Arg→Ala] | 3800 nM |
| SMERVEWARKKLQDV [PTH(17-31) 24 Leu→Ala] | 67500 nM |
| SMERAEWLRKKLQDV [PTH(17-31) 21 Val→Ala] | 1700 nM |
| SMARVEWLRKKLQDV [PTH(17-31) 19 Glu→Ala] | 700 nM |
| SMERVEWLRAKLQDV [PTH(17-31) 26 Lys→Ala] | 8300 nM |
| SMERVEWLRKKLQAV [PTH(17-31) 30 Asp→Ala] | 1100 nM |
